doi:10.1101/2022.11.04.515179

B1: 32P 24-mer 8-oxoG:C (dsDNA)
DNA 1: CTGATCGATGACGCCTGACATGAT
DNA 2: ATCATGTCAGGCGTCATCGATCAG
modifications: 8-oxoG at position 13 of strand 1
B2: Cy5 34-mer 8-oxoG:C (dsDNA)
DNA 1: GGCTTCATCGTTGTCGCAGACCTGGTGGATACCG
DNA 2: CGGTATCCACCAGGTCTGCGACAACGATGAAGCC
modifications: 8-oxoG at position 16 of strand 1

How the values were obtained:
OGG1 WT (untagged) = OGG1 WT (untagged) (human, UniProt O15527 1-345); test: EMSA
GST-OGG1 G245A = GST-OGG1 G245A (human, UniProt O15527 1-345, G245A); test: EMSA
Chain of GST-OGG1 G245A (O15527 whole entry G245A): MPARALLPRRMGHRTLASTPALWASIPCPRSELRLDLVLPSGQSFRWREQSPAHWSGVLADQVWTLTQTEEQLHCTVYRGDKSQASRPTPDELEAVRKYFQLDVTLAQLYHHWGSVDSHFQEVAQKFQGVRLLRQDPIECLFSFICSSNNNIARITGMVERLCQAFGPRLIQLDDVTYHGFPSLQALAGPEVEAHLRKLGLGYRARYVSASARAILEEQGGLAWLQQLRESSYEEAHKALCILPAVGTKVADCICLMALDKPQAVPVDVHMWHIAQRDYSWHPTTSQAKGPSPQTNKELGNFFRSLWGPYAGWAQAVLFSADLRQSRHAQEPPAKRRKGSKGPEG

Chain of OGG1 WT (untagged) (O15527 whole entry): as the sequence (O15527 whole entry G245A) above, with A245G counted along it

Binder	binding result (OGG1 WT (untagged))	binding result (GST-OGG1 G245A)
B1	binds	
B2		no binding
